Substitutions are numbered along the chain they refer to.

Data on 13 molecules can be found in US20230002492A1 (SIMCERE SHANGHAI PHARMACEUTICAL, published 2023).

B1: PDL1-794 (antibody, V domains shown)
VH: EVQLQESGPSLVKPSQTLSLTCSVTGDSITSGYWNWIRKFPGNKLEYMGYISYSGSTYYNPFLKSRISITRDTSKNQYYLQLNSVTTEDTATYYCAKMGDWLAWFAYWGQGTTVTVSS
VL: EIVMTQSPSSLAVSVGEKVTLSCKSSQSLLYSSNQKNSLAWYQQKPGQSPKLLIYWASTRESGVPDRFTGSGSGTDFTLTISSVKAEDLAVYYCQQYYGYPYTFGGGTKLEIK
B2: PDL1-50 (antibody, V domains shown)
VH: EVQLQESGGDLVKPGGSLKLSCAASGFTFNTYGMSWVRQTPDKRLEWVATLSSGGSYTYYSESVKGRFTISRDNAKNTLYLQMTSLKSEDTAIYYCARPTADWHLDVWGTGTTVTVSS
VL: DIQMTQSPSSLSASLGGKVTITCKASQDINKYIAWYQHKPGKGPRLLIHYTSTLQPGIPSRFSGSGSGRDYSFSISNLEPEDIATYYCLQHDNLLFTFGSGTKLEIK
B3: PDL1-90 (antibody, V domains shown)
VH: B2 VH with A23T, N30S, L51V, S61P, E62D, T84S
VL: B2 VL with S7T, K31R, R45S
B4: PDL1-34 (antibody, V domains shown)
VH: B2 VH with T84N
VL: B2 VL with Q3L, K24N, R45S
B5: PDL1-156 (antibody, V domains shown)
VH: EVQLQESGPELVKPGASVKISCKASGYTFTDYYMNWVRQSHGKSLEWIGDINPNNGDTSYNQKFKGKATLTVDKSSSTAYMDLRSLTSEDSAVYYCASSVMDYWGQGTTVTVSS
VL: DIVLTQSPALMSASPGEKVTMTCSASSSVNYVYWYQQKPRSSPKPWIYLTFNLASGVPARFSGSGSGTSYSLTISSMEAEDAATYYCQQWSSNPLTFGAGTKLEIK
B6: PDL1-370 (antibody, V domains shown)
VH: EVQLQESGPGLAKPSQTLSLTCSVTGYSITSDYWNWIRKFPGNKLEYMGYISYTGSTYYNPSLKSRISIARDTSRNQYYLQLNSVTTEDSATYYCARAGGWLLPFAVWGTGTTVTVSS
VL: DIVITQSPSSLAVSVGEKVTMSCKSSQSLLYSSNQQNSLAWYQQKPGQSPILLIYWASTRESGVPDRFTGGGSGTDFTLTISSVRAEDLAVYYCQQYYNYPWTFGGGTKLEIK
B7: PDL1-413 (antibody, V domains shown)
VH: B6 VH with N83K, S90T
VL: B6 VL with I4M, G71S, N99S
B8: PDL1-373 (antibody, V domains shown)
VH: EVQLQESGGGLVKPGGSLKLSCAASGFTFSDYGMHWVRQAPEKGLEWVAYISSGSSTIYYADTVKGRFTISRDNAKNTLFLQMTSLRSEDTAMYYCARRNFGSSYDYWGQGTTVTVSS
VL: EIVMTQSHKFMSTSVGDRVSITCKASQDVDTPVAWYQQKPGQSPRLLIYWASIRHTGVPDRFTGSGSGTDFTLTISNVQSEDLADYFCQQYSSYPLTFGSGTKLEIK
B9: PDL1-130 (antibody, V domains shown)
VH: EVQLQESGPGLAKPSQTLSLTCSVTGYSITSDYWNWIRKFPGNKLEYVGYISYTGSTYYNPSLRSRISITRDTSKNQYYLQLNSVTAEDTATYYCARCPGWLNAMDYWGQGTTVTVSS
VL: DILMTQSPSSLAVSVGEKVTLSCKSSQSLLYSNNQKNSLAWYQQKPGQSPKLLIYWASTGESGVPDRFTGSGSGTDFTLTISSVKAEDLAVYYCQQYYGYPFTFGAGTKLEIK
B10: 156-11H (antibody, V domains shown)
VH: QVQLVQSGPELKKPGASVKISCKASGYTFTDYYMNWVRQAPGQSLEWIGDIWPNNGDTSYNQKFKGRVTLTRDTSTSTVYMELRSLRSEDTAVYYCARSVMDYWGQGTLVTVSS
VL: EIVLTQSPALLSLSPGERVTLSCSASSSVNYVYWYQQKPGQAPRPLIYLTFNLASGIPARFSGSGSGTDFTLTISSLEPEDFAVYYCQQWSVNPLTFGGGTKVEIK
B11: 156-10H (antibody, V domains shown)
VH: B10 VH with D102S, Y103D
VL: B10 VL with V92S
B12: 156-7H (antibody, V domains shown)
VH: B10 VH with Y103T
VL: B10 VL
B13: 156-1H (antibody, V domains shown)
VH: B10 VH with S59W
VL: B10 VL

T3 sequence (Q9NZQ7 19-290 limits assumed): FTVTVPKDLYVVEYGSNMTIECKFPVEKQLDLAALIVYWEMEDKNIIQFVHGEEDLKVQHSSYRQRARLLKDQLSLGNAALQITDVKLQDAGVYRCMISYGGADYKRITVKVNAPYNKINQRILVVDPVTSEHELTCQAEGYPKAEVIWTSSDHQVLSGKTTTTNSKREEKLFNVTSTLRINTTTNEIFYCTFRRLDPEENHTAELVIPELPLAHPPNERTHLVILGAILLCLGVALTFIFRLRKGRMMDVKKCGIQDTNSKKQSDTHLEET

One assay deals with T1, cynomolgus monkey PD-L1-His protein (Sino Biological, Cat. 90251-CO8H) (cynomolgus monkey, UniProt G7PSE7 19-238).
T1 construct: Bought protein; also called cynomolgus monkey PD-L1 recombinant protein
T1 sequence (G7PSE7 entry or part of it limits assumed): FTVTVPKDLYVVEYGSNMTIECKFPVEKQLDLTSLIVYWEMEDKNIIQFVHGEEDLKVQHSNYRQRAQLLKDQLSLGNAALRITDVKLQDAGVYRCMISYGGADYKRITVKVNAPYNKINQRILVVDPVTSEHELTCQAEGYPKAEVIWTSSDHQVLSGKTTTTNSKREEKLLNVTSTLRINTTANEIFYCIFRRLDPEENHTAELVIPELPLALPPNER
Briefly: SPR, Biacore T200, antibody captured, PD-L1-His injected, 1:1 model, 25 C. As to the method: (§1) Biacore T200 (GE Healthcare) was used to determine binding affinity of the PD-L1 antibody to the human and cynomolgus monkey PD-L1-His proteins. Anti-human IgG Fc (Genway, Cat. GWB-20A705) was immobilized on CM5 chip (GE Healthcare, Cat. BR-1005-30) at 25° C. Anti-human Fc (Genway, Cat. GWB-20A705) was diluted to […] with Acetate pH5.0 (GE Healthcare, BR-1003-51). The Amine method in the Immobilization method was used to immobilize. Alternatively, a commercially available Protein A (GE Healthcare, Cat. 29127556) chip was used for detection. […] In each cycle, the antibody to be tested was captured on the fixed CM5 chip, then injected with recombinant human PD-L1-His (Novoprotein, Cat. 315) and cynomolgus monkey PD-L1-His protein (Sino Biological, Cat. 90251-CO8H), and finally regenerated with Glycine pH1.5. The mobile phase was HBS-EP+Buffer (GE Healthcare, Cat. BR-1006-69), the flow rate was 30 μL/min, and the binding time was 300 seconds. The regeneration flow rate was 30 μL/min and the time was 30 seconds. Using Biacore T200 evaluation software (version 3.0), a 1:1 binding model was used to analyze the experimental data, fit the equilibrium dissociation constant KD of the antibody and antigen, and determine the binding rate constant Ka and dissociation rate constant Kd.
In general terms: Surface plasmon resonance follows binding to a sensor surface in real time, without labels.
Consider B1, for which binding was characterised by a dissociation constant (Kd) of 0.883 nM.
Same read-out and setting: next, B2: 33.1 nM; B3: 62.5 nM; B4: 5.43 nM.
In the case of B5, the Kd (commonly the equilibrium constant for the complex coming apart) was 0.375 nM.
B6 returned a Kd of 2.18 nM.
B7 had a Kd of 2.76 nM.
For B8, the Kd worked out at 3.64 nM.
Same read-out and setting: in the case of B9 it was 1.95 nM.

A further assay deals with T2, recombinant human PD-L1-His (Novoprotein, Cat. 315) (human, UniProt Q9NZQ7 19-239).
T2 construct: Bought protein; also called human PD-L1 recombinant protein; human PDL1 protein; not shown: His tag
T2 sequence (Q9NZQ7 19-239 limits assumed): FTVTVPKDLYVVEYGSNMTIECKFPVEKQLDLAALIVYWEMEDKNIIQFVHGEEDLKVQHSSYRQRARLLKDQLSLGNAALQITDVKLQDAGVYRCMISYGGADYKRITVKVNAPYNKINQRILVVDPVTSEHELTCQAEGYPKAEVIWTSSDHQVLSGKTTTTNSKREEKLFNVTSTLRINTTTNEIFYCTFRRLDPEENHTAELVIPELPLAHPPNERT
The description is as above. The protocol: as §1
Take B1: the Kd came out at 1.25 nM.
On the same count and under the same terms, next, B2: 0.699 nM; B3: 0.87 nM; B4: 0.458 nM.
The same measure, in the same setting: in the case of B5 it was 0.291 nM; in that of B6, 2.42 nM; in that of B7, 2.09 nM.
The same measure, in the same setting: next, B8: 2.45 nM; B9: 2.18 nM.

A further assay concerns the target T3, PD-L1 on the surface of CHO-PD-L1 cells (UniProt Q9NZQ7 19-290, limits assumed).
T3 construct: whole, on cells; also called CHO-PD-L1 cells (Nanjing Yongshan Biotechnology); CHO cell line (GenScript, Cat. M00613) stably transfected with PD-L1
Briefly: flow cytometry on CHO-PD-L1 cells, anti-human IgG PE, MFI fold, ng/ml is the unit of the concentration axis. The protocol:
(§2) A gradient concentration of antibodies to be detected (final concentration of antibody: 10000 ng/ml-0.1 ng/ml, 10-foldserial dilution) were incubated with CHO-PD-L1 cells (Nanjing Yongshan Biotechnology Co., Ltd., 10⁵ cells/well) with high expression of PD-L1 on the cell surface at 4° C. ° C. for 30min. After incubation, 1:250 diluted anti-human IgG PE fluorescent antibody (eBioscience, Cat. 12-4998-8) was added, and incubated at 4° C. for 30 min. The fluorescent antibody specifically bound to the Fc fragment of the antibody to be detected. The fluorescent intensity of PE was detected by FACS, and the ability of the antibody to be detected to bind to PD-L1 protein highly expressed on the cell surface was analyzed. […] MFI fold=MFI value of the experimental group/MFI value of the control group without drugs.
(In general: A flow cytometer gives signals particle by particle.)
For B2, the EC50 (commonly the concentration giving half of the maximal effect) was 0.113 µg/mL.
Turning to B3, the EC50 was 0.119 µg/mL.
Still for that read-out and setting: in the case of B4 it was 0.113 µg/mL.
Same read-out and setting: next, B5: 0.0235 µg/mL; B8: 0.0633 µg/mL.
Turning to B9, the EC50 amounted to 0.0646 µg/mL.

Another assay deals with T4, recombinant human PD-L1 protein (Sino Biological, Cat. 10084-H05H) (human, UniProt Q9NZQ7 19-239).
T4 construct: also called PD-L1-mFc; human PD-L1 protein fused with mouse Fc
T4 sequence (Q9NZQ7 19-239 limits assumed): as above
The assay can be described thus: competitive ELISA: PD-L1 coated, antibody titrated against PD-1-His, anti-His-HRP. The protocol:
(§3) The recombinant human PD-L1 protein (Sino Biological, Cat. 10084-H05H) was diluted with carbonate buffer and added to a 96-well plate at a final concentration of […]. […] Then HRP-labeled anti-His tag antibody (MBL, Cat. D291-7) was added, and color development was performed with TMB. After termination with 1M sulfuric acid, OD values (dual wavelength 450 nm-630 nm) were read. The competitive binding curve of the test antibody can be drawn by matching the antibody concentration with the OD value to calculate the IC50 value.
For B10, the IC50 (usually the concentration at which inhibition is half-maximal) turned out to be 0.207 µg/mL.
B11: the IC50 worked out at 0.25 µg/mL.
On the same count and under the same terms, in the case of B12 it was 0.231 µg/mL; in that of B13, 0.197 µg/mL; in that of B5, 0.221 µg/mL.

In another assay the target is T3, PD-L1 on the surface of CHO-PD-L1 cells. The assay can be described thus: flow cytometry on CHO-PD-L1 cells, anti-human IgG PE. As to the method: as §2
For the molecule B10, the response was half-maximal at 0.05 µg/mL (EC50).
Same read-out and setting: next, B11: 0.0635 µg/mL.
Still for that read-out and setting: next, B12: 0.0784 µg/mL; B13: 0.0494 µg/mL.

For another assay, the target named is T4, recombinant human PD-L1 protein (Sino …). The assay can be described thus: competitive ELISA: coated human PD-L1 protein, antibody titrated together with human PD-1-His, bound PD-1-His detected with HRP anti-His. The protocol:
as §3
B1: the IC50 was 0.191 µg/mL.
For the molecule B2, the IC50 was found to be 0.294 µg/mL.
For the molecule B3, the IC50 was 0.259 µg/mL.
Still for that read-out and setting: next, B4: 0.276 µg/mL.
Consider B6, for which the IC50 stood at 0.156 µg/mL.
Still for that read-out and setting: in the case of B7 it was 0.184 µg/mL; in that of B8, 0.12 µg/mL.
Same read-out and setting: next, B9: 0.225 µg/mL.

For another assay the target is unchanged. Briefly: competitive ELISA: coated human PD-L1 protein, antibody titrated together with human PD-1-His, bound PD-1-His detected with HRP anti-His; panel A experiment (the text prints only the panel B value). The protocol:
as §3
For B5, the half-maximal inhibitory concentration (IC50) amounted to 0.14 µg/mL.

The target of the next assay is T2, recombinant human PD-L1-His …. The assay can be described thus: SPR, Biacore T200, antibody captured, human PD-L1-His injected, 1:1 model, 25 C. The protocol:
as §1
On to B10, for which the dissociation constant Kd was determined as 0.336 nM; the koff (in general, the rate constant with which the complex falls apart) was 0.000193 s⁻¹; the kon (commonly the second-order rate constant of association) turned out to be 574000 M⁻¹ s⁻¹.
For B11 the same measures were 0.224 nM, 0.000133 s⁻¹ and 595000 M⁻¹ s⁻¹.
For B12 the same measures were 0.348 nM, 0.00018 s⁻¹ and 518000 M⁻¹ s⁻¹.
B13: the Kd was 0.458 nM, the koff came to 0.000227 s⁻¹ and the kon turned out to be 494000 M⁻¹ s⁻¹.
For B5, in that order: 0.291 nM, 0.000233 s⁻¹ and 802000 M⁻¹ s⁻¹.

The next assay concerns the target T3, PD-L1 on the surface of CHO-PD-L1 cells. The assay can be described thus: cell-based or functional assay.
For the molecule B10, the “EC50 of NFAT luminescence reporter gene (RLU), Jurkat-PD-1 / CHO-PD-L1 co-culture” value turned out to be 282 ng/mL.
B11: the “EC50 of NFAT luminescence reporter gene (RLU), Jurkat-PD-1 / CHO-PD-L1 co-culture” value is 357 ng/mL.
Still for that read-out and setting: in the case of B12 it was 314 ng/mL; in that of B13, 342 ng/mL.
